Data on one molecule can be found in paper PMC4176350, “A high security double lock and key mechanism in HUH relaxases controls oriT-processing for plasmid conjugation”.

For the data set, the target named is T1, TrwCR (TrwC relaxase domain, TrwC-N293) (Escherichia coli? (plasmid R388), UniProt Q47673 1-293).
T1 sequence: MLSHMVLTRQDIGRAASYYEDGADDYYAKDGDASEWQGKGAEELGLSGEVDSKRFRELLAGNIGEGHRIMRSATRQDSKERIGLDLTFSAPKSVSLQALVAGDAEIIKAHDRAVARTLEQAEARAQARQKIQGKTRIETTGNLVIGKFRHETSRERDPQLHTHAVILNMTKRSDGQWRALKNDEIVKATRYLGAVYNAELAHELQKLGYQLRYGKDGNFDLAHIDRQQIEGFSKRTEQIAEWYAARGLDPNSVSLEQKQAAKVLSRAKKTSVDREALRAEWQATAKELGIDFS
Nature of the data set: X-ray crystallography; 1:1.5 protein:DNA; Crystallization: TrwCR 6 mg/ml in 200 mM NaCl, 20 mM Tris-HCl pH 7.5, 1 mM DTT, 0.5 mM EDTA; reservoir 2 M ammonium phosphate, 0.1 M Tris-HCl pH 8.5, 22 C. To be noted: protein: recombinant; hairpin with 3' single-stranded tail.

GCACCGAAAGGTGCGTATTCTTGGT (structured_DNA) [RIV(23+2), nic mutant IV]: the binding result is “binds”.
